The record followed here is PMC2699419 (2007).

In general, Kd refers to the equilibrium constant for the complex coming apart. Read a low Kd as tighter binding.

Test [1] has as its target T1, GM-CSF receptor alpha chain (Balb/c form, Asp227; on Ba/F3 cells expressing beta chain) (Mus musculus, UniProt Q00941).
T1 chain: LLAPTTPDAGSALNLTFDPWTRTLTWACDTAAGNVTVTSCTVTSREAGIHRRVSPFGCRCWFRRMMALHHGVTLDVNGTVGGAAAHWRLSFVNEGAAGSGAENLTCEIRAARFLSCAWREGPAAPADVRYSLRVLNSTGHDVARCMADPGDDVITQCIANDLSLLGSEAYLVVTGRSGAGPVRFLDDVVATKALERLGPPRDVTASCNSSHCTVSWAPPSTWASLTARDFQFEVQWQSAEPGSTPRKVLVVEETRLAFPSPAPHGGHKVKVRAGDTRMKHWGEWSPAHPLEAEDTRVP
The test is described as follows: flow cytometry cell binding, non-linear regression. Background: A flow cytometer gives signals particle by particle.

Test [2] deals with T2, GM-CSF receptor alpha chain (C57BL/6 form, Gly227; on Ba/F3 cells expressing beta chain) (Mus musculus, UniProt Q00941).
T2 chain: T1 chain
Nature of the test: flow cytometry cell binding, non-linear regression.

B1: GM-CSF-Fc fusion (GM-Fc) (protein)
chain: APTRSPITVTRPWKHVEAIKEALNLLDDMPVTLNEEVEVVSNEFSFKKLTCVQTRLKIFEQGLRGNFTKLKGALNMTASYYQTYCPPTPETDCETQVTTYADFIDSLKTFLTDIPFECKKPGQK
modifications: GM-CSF fused to mutated human IgG1 Fc, Ba/F3 cells co-expressing beta chain
Take B1: the figures for the Kd in test [1] and in test [2] were 15.6 nM and 19.6 nM, respectively.
